# Data: patent US20100169988A1 (published 2010)
# Target: APP-TAP-AICD (human, UniProt P05067 18-695)
# Assay: streptavidin purification of APP-TAP-AICD from brain homogenate; iTRAQ 116/114, transgenic mouse 75 vs control mouse 72; MALDI-TOF/TOF;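 also: relative protein abundance in the transgenic versus control pull-down, limited to proteins with high quality scores and above-average enrichment, without full normalization across the whole measurement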
row,Binder,iTRAQ ratio
1,"Malate dehydrogenase; cytoplasmic (enzyme, mouse, UniProt P14152 2-334, looked up) SEPIRVLVTGAAGQIAYSLLYSIGNGSVFGKDQPIILVLLDITPMMGVLDGVLMELQDCALPLLQDVIATDKEEIAFKDLDVAVLVGSMPRREGMERKDLLKANVKIFKSQGTALEKYAKKSVKVIVVGNPANTNCLTASKSAPSIPKENFSCLTRLDHNRAKSQIALKLGVTADDVKNVIIWGNHSSTQYPDVNHAKVKLQGKEVGVYEALKDDSWLKGEFITTVQQRGAAVIKARKLSSAMSAAKAIADHIRDIWFGTPEGEFVSMGVISDGNSYGVPDDLLYSFPVVIKNKTWKFVEGLPINDFSREKMDLTAKELTEEKETAFEFLSSA",5.96
2,"Aspartate aminotransferase; cytoplasmic (Transaminase A) (enzyme, mouse, UniProt P05201 2-413, looked up) APPSVFAQVPQAPPVLVFKLTADFRDDPDPRKVNLGVGAYRTDESQPWVLPVVRKVEQKIANDNSLNHEYLPILGLAEFRSCASRLVLGDNSLAIRENRVGGVQSLGGTGALRIGADFLGRWYNGTDNKNTPIYVSSPTWENHNAVFSAAGFKDIRPYCYWDAEKRGLDLQGFLNDLENAPEFSIFVLHACAHNPTGTDPTPEQWKQIAAVMQRRFLFPFFDSAYQGFASGDLEKDAWAIRYFVSEGFELFCAQSFSKNFGLYNERVGNLTVVGKESDSVLRVLSQMEKIVRITWSNPPAQGARIVAATLSDPELFKEWKGNVKTMADRILTMRSELRARLEALKTPGTWSHITEQIGMFSFTGLNPKQVEYLVNEKHIYLLPSGRINMCGLTTKNLDYVATSIHEAVTKIQ",4.04
3,"Alpha enolase (2-phospho-D-glycerate hydro-lyase) (Non-neural enolase) (NNE) (enzyme, mouse, UniProt P17182 2-434, looked up) SILRIHAREIFDSRGNPTVEVDLYTAKGLFRAAVPSGASTGIYEALELRDNDKTRFMGKGVSQAVEHINKTIAPALVSKKVNVVEQEKIDKLMIEMDGTENKSKFGANAILGVSLAVCKAGAVEKGVPLYRHIADLAGNPEVILPVPAFNVINGGSHAGNKLAMQEFMILPVGASSFREAMRIGAEVYHNLKNVIKEKYGKDATNVGDEGGFAPNILENKEALELLKTAIAKAGYTDQVVIGMDVAASEFYRSGKYDLDFKSPDDPSRYITPDQLADLYKSFVQNYPVVSIEDPFDQDDWGAWQKFTASAGIQVVGDDLTVTNPKRIAKAASEKSCNCLLLKVNQIGSVTESLQACKLAQSNGWGVMVSHRSGETEDTFIADLVVGLCTGQIKTGAPCRSERLAKYNQILRIEEELGSKAKFAGRSFRNPLAK",3.9
4,L-lactate dehydrogenase B chain (LDH-B) (LDH heart subunit) (enzyme) not shown,3.99
5,"Fructose-bisphosphate aldolase C (Brain-type aldolase) (Aldolase 3) (enzyme, mouse, UniProt P05063 2-363, looked up) PHSYPALSAEQKKELSDIALRIVTPGKGILAADESVGSMAKRLSQIGVENTEENRRLYRQVLFSADDRVKKCIGGVIFFHETLYQKDDNGVPFVRTIQDKGILVGIKVDKGVVPLAGTDGETTTQGLDGLLERCAQYKKDGADFAKWRCVLKISDRTPSALAILENANVLARYASICQQNGIVPIVEPEILPDGDHDLKRCQYVTEKVLAAVYKALSDHHVYLEGTLLKPNMVTPGHACPIKYSPEEIAMATVTALRRTVPPAVPGVTFLSGGQSEEEASLNLNAINRCPLPRPWALTFSYGRALQASALNAWRGQRDNAGAATEEFIKRAEMNGLAAQGRYEGSGDGGAAAQSLYIANHAY",3.77
6,"Glutamine synthetase (Glutamate-ammonia ligase) (enzyme, mouse, UniProt P15105 2-373, looked up) ATSASSHLNKGIKQMYMSLPQGEKVQAMYIWVDGTGEGLRCKTRTLDCEPKCVEELPEWNFDGSSTFQSEGSNSDMYLHPVAMFRDPFRKDPNKLVLCEVFKYNRKPAETNLRHICKRIMDMVSNQHPWFGMEQEYTLMGTDGHPFGWPSNGFPGPQGPYYCGVGADKAYGRDIVEAHYRACLYAGVKITGTNAEVMPAQWEFQIGPCEGIRMGDHLWIARFILHRVCEDFGVIATFDPKPIPGNWNGAGCHTNFSTKAMREENGLKCIEEAIDKLSKRHQYHIRAYDPKGGLDNARRLTGFHETSNINDFSAGVANRGASIRIPRTVGQEKKGYFEDRRPSANCDPYAVTEAIVRTCLLNETGDEPFQYKN",3.76
7,"Triosephosphate isomerase (TIM) (Triose-phosphate isomerase) (enzyme, mouse, UniProt P17751 2-249, looked up) APTRKFFVGGNWKMNGRKKCLGELICTLNAANVPAGTEVVCAPPTAYIDFARQKLDPKIAVAAQNCYKVTNGAFTGEISPGMIKDLGATWVVLGHSERRHVFGESDELIGQKVSHALAEGLGVIACIGEKLDEREAGITEKVVFEQTKVIADNVKDWSKVVLAYEPVWAIGTGKTATPQQAQEVHEKLRGWLKSNVNDGVAQSTRIIYGGSVTGATCKELASQPDVDGFLVGGASLKPEFVDIINAKQ",4.61
8,"Ubiquitin carboxyl-terminal hydrolase isozyme L1 (UCH-L1) (enzyme, mouse, UniProt Q9R0P9 1-220, looked up, also called UCHL1_MOUSE) MQLKPMEINPEMLNKVLAKLGVAGQWRFADVLGLEEETLGSVPSPACALLLLFPLTAQHENFRKKQIEELKGQEVSPKVYFMKQTIGNSCGTIGLIHAVANNQDKLEFEDGSVLKQFLSETEKLSPEDRAKCFEKNEAIQAAHDSVAQEGQCRVDDKVNFHFILFNNVDGHLYELDGRMPFPVNHGASSEDSLLQDAAKVCREFTEREQGEVRFSAVALC",4.68
9,Glyceraldehyde-3-phosphate dehydrogenase (GAPDH) (enzyme) not shown,4.54
10,"Excitatory amino acid transporter 2 (Sodium-dependent glutamate/aspartate transporter 2) (other, mouse, UniProt P43006 1-572, looked up, also called EAA2_MOUSE; GLT-1) MASTEGANNMPKQVEVRMHDSHLSSDEPKHRNLGMRMCDKLGKNLLLSLTVFGVILGAVCGGLLRLASPIHPDVVMLIAFPGDILMRMLKMLILPLIISSLITGLSGLDAKASGRLGTRAMVYYMSTTIIAAVLGVILVLAIHPGNPKLKKQLGPGKKNDEVSSLDAFLDLIRNLFPENLVQACFQQIQTVTKKVLVAPPSEEANTTKAVISMLNETMNEAPEETKIVIKKGLEFKDGMNVLGLIGFFIAFGIAMGKMGEQAKLMVEFFNILNEIVMKLVIMIMWYSPLGIACLICGKIIAIKDLEVVARQLGMYMITVIVGLIIHGGIFLPLIYFVVTRKNPFSFFAGIFQAWITALGTASSAGTLPVTFRCLEDNLGIDKRVTRFVLPVGATINMDGTALYEAVAAIFIAQMNGVILDGGQIVTVSLTATLASIGAASIPSAGLVTMLLILTAVGLPTEDISLLVAVDWLLDRMRTSVNVVGDSFGAGIVYHLSKSELDTIDSQHRMQEDIEMTKTQSIYDDKNHRESNSNQCVYAAHNSVVIDECKVTLAANGKSADCSVEEEPWKREK",4.44
11,"Clathrin light chain A (Lca) (other, mouse, UniProt O08585 1-235, looked up) MAELDPFGAPAGAPGGPALGNGVAGAGEEDPAAAFLAQQESEIAGIENDEAFAILDGGAPGRATRRAAGGPDAVDGVMNGEYYQESNGPTDSYAAISEVDRLQSEPESIRKWREEQTERLEALDANSRKQEAEWKEKAIKELEEWYARQDEQLQKTKANNRVADEAFYKQPFADLIGYVAAEEAFVNDIDESSPGTEWERVARLCDFNPKSSKQAKDVSRMRSVLISLKQAPLVH",3.98
12,"Vacuolar ATP synthase catalytic subunit A; ubiquitous isoform (enzyme, also called VATA1_MOUSE) MDFSKLPKIRDEDKESTFGYVHGVSGPVVTACDMAGAAMYELVRVGHSELVGEIIRLEGDMATIQVYEETSGVSVGDPVLRTGKPLSVELGPGIMGAIFDGIQRPLSDISSQTQSIYIPRGVNVSALSRDIKWEFIPSKNLRVGSHITGGDIYGIVNENSLIKHKIMLPPRNRGSVTYIAPPGNYDASDVVLELEFEGVKEKFSMVQVWPVRQVRPVTEKLPANHPLLTGQRVLDALFPCVQGGTTAIPGAFGCGKTVISQSLSKYSNSDVIIYVGCGERGNEMSEVLRDFPELTMEVDGKVESIMKRTALVANTSNMPVAAREASIYTGITLSEYFRDMGYHVSMMADSTSRWAEALREISGRLAEMPADSGYPAYLGARLASFYERAGRVKCLGNPEREGSVSIVGAVSPPGGDFSDPVTSATLGIVQVFWGLDKKLAQRKHFPSVNWLISYSKYMRALDEYYDKHFTEFVPLRTKAKEILQEEEDLAEIVQLVGKASLAETDKITLEVAKLIKDDFLQQNGYTPYDRFCPFYKTVGMLSNMISFYDMARRAVETTAQSDNKITWSIIREHMGEILYKLSSMKFKDPVKDGEAKIKADYAQLLEDMQNAFRSLED",3.81
13,"Pyruvate kinase; isozyme M2 (enzyme, also called pyruvate kinase isozyme M1/2) not shown",4.71
14,Creatine kinase; B chain (enzyme) not shown,5.32
15,"Aspartate aminotransferase; mitochondrial precursor (Transaminase A) (enzyme, mouse, UniProt P05202 30-430, looked up) SSWWTHVEMGPPDPILGVTEAFKRDTNSKKMNLGVGAYRDDNGKPYVLPSVRKAEAQIAAKNLDKEYLPIGGLAEFCKASAELALGENNEVLKSGRFVTVQTISGTGALRVGASFLQRFFKFSRDVFLPKPSWGNHTPIFRDAGMQLQGYRYYDPKTCGFDFSGALEDISKIPEQSVLLLHACAHNPTGVDPRPEQWKEIASVVKKKNLFAFFDMAYQGFASGDGDKDAWAVRHFIEQGINVCLCQSYAKNMGLYGERVGAFTVVCKDAEEAKRVESQLKILIRPLYSNPPLNGARIAATILTSPDLRKQWLQEVKGMADRIISMRTQLVSNLKKEGSSHNWQHITDQIGMFCFTGLKPEQVERLTKEFSVYMTKDGRISVAGVTSGNVGYLAHAIHQVTK",3.51
16,"ATP synthase gamma chain; mitochondrial precursor (enzyme, mouse, UniProt Q91VR2 26-298, looked up) ATLKDITRRLKSIKNIQKITKSMKMVAAAKYARAERELKPARVYGTGSLALYEKADIKAPEDKKKHLIIGVSSDRGLCGAIHSSVAKQMKNEVAALTAAGKEVMIVGVGEKIKGILYRTHSDQFLVSFKDVGRKPPTFGDASVIALELLNSGYEFDEGSIIFNQFKSVISYKTEEKPIFSLNTIATAETMSIYDDIDADVLQNYQEYNLANLIYYSLKESTTSEQSARMTAMDNASKNASDMIDKLTLTFNRTRQAVITKELIEIISGAAALD",3.98
17,"Phosphate carrier protein; mitochondrial precursor (PTP) (other, mouse, UniProt Q8VEM8 46-357, looked up) AVEEYSCEFGSMKYYALCGFGGVLSCGLTHTAVVPLDLVKCRMQVDPQKYKGIFNGFSITLKEDGVRGLAKGWAPTLIGYSMQGLCKFGFYEVFKALYSNILGEENTYLWRTSLYLASSASAEFFADIALAPMEAAKVRIQTQPGYANTLREAVPKMYKEEGLNAFYKGVAPLWMRQIPYTMMKFACFERTVEALYKFVVPKPRSECTKAEQLVVTFVAGYIAGVFCAIVSHPADSVVSVLNKEKGSTASQVLQRLGFRGVWKGLFARIIMIGTLTALQWFIYDSVKVYFRLPRPPPPEMPESLKKKLGLTE",4.61
18,"Synaptotagmin-1 (Synaptotagmin I) (SytI) (p65) (other, mouse, UniProt P46096 1-421, looked up, also called SYT1_MOUSE) MVSASRPEALAAPVTTVATLVPHNATEPASPGEGKEDAFSKLKQKFMNELHKIPLPPWALIAIAIVAVLLVVTCCFCVCKKCLFKKKNKKKGKEKGGKNAINMKDVKDLGKTMKDQALKDDDAETGLTDGEEKEEPKEEEKLGKLQYSLDYDFQNNQLLVGIIQAAELPALDMGGTSDPYVKVFLLPDKKKKFETKVHRKTLNPVFNEQFTFKVPYSELGGKTLVMAVYDFDRFSKHDIIGEFKVPMNTVDFGHVTEEWRDLQSAEKEEQEKLGDICFSLRYVPTAGKLTVVILEAKNLKKMDVGGLSDPYVKIHLMQNGKRLKKKKTTIKKNTLNPYYNESFSFEVPFEQIQKVQVVVTVLDYDKIGKNDAIGKVFVGYNSTGAELRHWSDMLANPRRPIAQWHTLQVEEEVDAMLAVKK",3.82
